US20040258659A1

Molecular target: CCR5, P51681
Assay: competitive radioligand binding on whole CHO-CCR5 cells at 4 C, 12 pM [125I]MIP-1α tracer
Settings: remark: other sources report otherwise

CCR5, P51681, sequence (P51681 whole entry): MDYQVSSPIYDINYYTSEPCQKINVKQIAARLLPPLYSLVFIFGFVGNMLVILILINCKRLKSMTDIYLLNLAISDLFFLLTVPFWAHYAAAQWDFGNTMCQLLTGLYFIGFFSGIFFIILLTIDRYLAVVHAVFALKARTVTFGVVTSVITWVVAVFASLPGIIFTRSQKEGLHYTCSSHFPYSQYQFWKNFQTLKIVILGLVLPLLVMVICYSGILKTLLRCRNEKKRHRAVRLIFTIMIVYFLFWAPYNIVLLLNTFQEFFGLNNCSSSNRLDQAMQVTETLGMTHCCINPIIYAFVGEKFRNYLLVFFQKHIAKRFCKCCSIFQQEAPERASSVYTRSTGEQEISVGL

B1: RANTES, P13501 24-91 (ligand, human, UniProt P13501 24-91, looked up)
chain: SPYSSDTTPCCFAYIARPLPRAHIKEYFYTSGKCSNPAVVFVTRKNRQVCANPEKKWVREYINSLEMS
IC50: 1.7 nM
